B1: Recombinant human BMP10 growth factor (GF)-domain (R&D Systems) (ligand, UniProt O95393 317-424, looked up)
chain: NAKGNYCKRTPLYIDFKEIGWDSWIIAPPGYEAYECRGVCNYPLAEHLTPTKHAIIQALVHLKNSQKASKACCVPTKLEPISILYLDKGVVTYKFKYEGMAVSECGCR
notes: growth factor (GF) domain of human BMP10, the cut product of the BMP10 precursor; also called BMP10 GF-domain; source: bought: R&D Systems (cat. No. 2926-BP-025/CF)

What was measured:
BMPRII-Fc (R&D Systems) = biological target: T1, BMPRII-Fc (R&D Systems) (UniProt Q13873 27-150); test: SPR; BMP10 flowed over a BMPRII-Fc surface, with ALK1 present (Supplementary Fig 5c); details: both partners purified
T1 construct: BMPRII part of the bought Fc fusion; source: bought: R&D Systems (cat. No. 811-BR)
T1 sequence (looked up): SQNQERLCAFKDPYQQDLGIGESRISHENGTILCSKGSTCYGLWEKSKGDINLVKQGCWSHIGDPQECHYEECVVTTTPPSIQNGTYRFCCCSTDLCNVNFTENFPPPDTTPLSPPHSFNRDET

BMPRII ECD Q92H = biological target: T2, BMPRII ECD Q92H (human, UniProt Q13873-1 27-150, Q92H); test: SPR; Biacore T200; BMP10 GF-domain amine-coupled to a CM5 chip (1300 RU); ALK1-Fc, BMPRII-Fc or monomeric BMPRII WT and mutant ECDs injected at 40 ul/min; 10 mM HEPES pH 7.4, 150 mM NaCl, 3.4 mM EDTA, 0.5 mg/ml BSA, 0.005% P20, 25 °C; 1:1 model, KD = kd/ka; details: both partners purified
T2 construct: BMPRII (BMPR2) extracellular domain, human, amino acids 27-150 of the cDNA NM_001204; mutation found in PAH patients; source: E. coli Rosetta DE3, periplasm, purified (HisTrap, TEV cleavage, Superdex 75); not shown: DsbA, N-terminal, cleaved; His6, N-terminal, cleaved
T2 sequence (looked up): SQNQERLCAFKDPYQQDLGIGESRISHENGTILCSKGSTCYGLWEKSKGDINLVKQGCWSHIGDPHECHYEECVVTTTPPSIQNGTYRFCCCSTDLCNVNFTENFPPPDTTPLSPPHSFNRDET

BMPRII ECD E98K [1] = biological target: T3, BMPRII ECD E98K (human, UniProt Q13873-1 27-150, E98K); test: as above; details: both partners purified
T3 construct: BMPRII (BMPR2) extracellular domain, human, amino acids 27-150 of the cDNA NM_001204; mutation found in PAH patients; source: E. coli Rosetta DE3, periplasm, purified (HisTrap, TEV cleavage, Superdex 75); not shown: DsbA, N-terminal, cleaved; His6, N-terminal, cleaved
T3 sequence (looked up): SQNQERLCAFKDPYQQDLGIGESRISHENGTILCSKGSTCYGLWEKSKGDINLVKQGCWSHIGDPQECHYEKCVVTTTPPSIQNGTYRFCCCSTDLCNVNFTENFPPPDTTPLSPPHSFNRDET

BMPRII ECD N126S [2] = biological target: T4, BMPRII ECD N126S (human, UniProt Q13873-1 27-150, N126S); test: as above; details: both partners purified
T4 construct: BMPRII (BMPR2) extracellular domain, human, amino acids 27-150 of the cDNA NM_001204; mutation found in PAH patients; source: E. coli Rosetta DE3, periplasm, purified (HisTrap, TEV cleavage, Superdex 75); not shown: DsbA, N-terminal, cleaved; His6, N-terminal, cleaved
T4 sequence (looked up): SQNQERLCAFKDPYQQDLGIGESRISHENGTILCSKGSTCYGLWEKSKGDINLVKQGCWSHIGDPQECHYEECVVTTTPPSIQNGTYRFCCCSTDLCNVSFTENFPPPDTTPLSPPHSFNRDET

[3] = biological target: the molecule itself; test: crystal structure; BMP10:BMPRII ECD binary complex, two crystal forms (P212121, 1.48 Å; C2, 2.40 Å); complex refolded from denatured BMP10 GF-domain with excess BMPRII ECD
BMPRII ECD E98K [4] = biological target: T3, BMPRII ECD E98K; test: native gel or EMSA; prodomain displacement: Pro:BMP10 premixed with BMPRII WT or mutant ECDs at 1:2 and 1:5 molar ratio, 20 mM Tris, 150 mM NaCl, pH 7.4, 30 min at room temperature, 12% native PAGE, Coomassie, densitometry of Pro:BMP10/prodomain; details: both partners purified
BMPRII ECD N126S [5] = biological target: T4, BMPRII ECD N126S; test: as above; details: both partners purified
[6] = biological target: B1; test: SPR; Biacore T200; BMP10 GF-domain amine-coupled to a CM5 chip (1300 RU); ALK1-Fc, BMPRII-Fc or monomeric BMPRII WT and mutant ECDs injected at 40 ul/min; 10 mM HEPES pH 7.4, 150 mM NaCl, 3.4 mM EDTA, 0.5 mg/ml BSA, 0.005% P20, 25 °C; 1:1 model, KD = kd/ka; details: both partners purified

In the case of B1, the “fold weaker affinity with ALK1 present than without ALK1” value (BMPRII-Fc (R&D Systems)) is reported as roughly 5 fold, the binding result (BMPRII ECD Q92H) is reported as “binds” and the binding result (BMPRII ECD E98K [1]) is reported as “binds”. B1: binds (BMPRII ECD N126S [2]).

B2: BMP10 growth factor (GF)-domain from Pro:BMP10 made in HEK EBNA cells (ligand, human, UniProt O95393 317-424, looked up)
chain: NAKGNYCKRTPLYIDFKEIGWDSWIIAPPGYEAYECRGVCNYPLAEHLTPTKHAIIQALVHLKNSQKASKACCVPTKLEPISILYLDKGVVTYKFKYEGMAVSECGCR
notes: growth factor (GF) domain of human BMP10, cut by furin from the product of the full-length open reading frame (NM_014482); also called BMP10 GF-domain; source: HEK EBNA, full-length BMP10 cDNA co-transfected with FURIN, purified from conditioned medium as Pro:BMP10
B2: binds [3]; binds (BMPRII ECD E98K [4]); binds (BMPRII ECD N126S [5]).

B3: BMPRII ECD G89A (domain or fragment, human, UniProt Q13873-1 27-150, looked up)
chain: SQNQERLCAFKDPYQQDLGIGESRISHENGTILCSKGSTCYGLWEKSKGDINLVKQGCWSHIADPQECHYEECVVTTTPPSIQNGTYRFCCCSTDLCNVNFTENFPPPDTTPLSPPHSFNRDET
notes: BMPRII (BMPR2) extracellular domain, human, amino acids 27-150 of the cDNA NM_001204; source: E. coli Rosetta DE3, periplasm, purified (HisTrap, TEV cleavage, Superdex 75); not shown: DsbA, N-terminal, cleaved; His6, N-terminal, cleaved
B3 was tested, and the “fold reduction in affinity against WT BMPRII ECD” value (“fold reduction in affinity” for short) [6] was less than 2 fold.

B4: BMPRII ECD G89E (domain or fragment, human, UniProt Q13873-1 27-150, looked up)
chain: SQNQERLCAFKDPYQQDLGIGESRISHENGTILCSKGSTCYGLWEKSKGDINLVKQGCWSHIEDPQECHYEECVVTTTPPSIQNGTYRFCCCSTDLCNVNFTENFPPPDTTPLSPPHSFNRDET
notes: as for B3
With B4 the “fold reduction in affinity” value [6] was greater than 100 fold.

B5: BMPRII ECD G89W (domain or fragment, human, UniProt Q13873-1 27-150, looked up)
chain: SQNQERLCAFKDPYQQDLGIGESRISHENGTILCSKGSTCYGLWEKSKGDINLVKQGCWSHIWDPQECHYEECVVTTTPPSIQNGTYRFCCCSTDLCNVNFTENFPPPDTTPLSPPHSFNRDET
notes: as for B3
In the case of B5, the “fold reduction in affinity” value [6] is reported as greater than 100 fold.

B6: BMPRII ECD S107P (domain or fragment, human, UniProt Q13873-1 27-150, looked up)
chain: SQNQERLCAFKDPYQQDLGIGESRISHENGTILCSKGSTCYGLWEKSKGDINLVKQGCWSHIGDPQECHYEECVVTTTPPPIQNGTYRFCCCSTDLCNVNFTENFPPPDTTPLSPPHSFNRDET
notes: BMPRII (BMPR2) extracellular domain, human, amino acids 27-150 of the cDNA NM_001204; mutation found in PAH patients; source: E. coli Rosetta DE3, periplasm, purified (HisTrap, TEV cleavage, Superdex 75); not shown: DsbA, N-terminal, cleaved; His6, N-terminal, cleaved
For B6, the “fold tighter binding than WT BMPRII ECD” value [6] was roughly 4 fold.

From PMC9064986, “Crystal structures of BMPRII extracellular domain in binary and ternary receptor complexes with BMP10” (Nature Communications, 2022)
